Target: HLA-A*02 (Homo sapiens, UniProt P04439, D140Y/D185E/D98H/E176V/E277Q/G131W/G231S/I119V/I121R/I166T/I218V/N151K/N90K/P208A/P217A/Q86G/Q94H/R138H/R169H)
Experiment: MHC binding assay: UV-ligand exchange, beta2m ELISA (peptide exchange yield)
Conditions: binding to HLA-A*02, β2m ELISA
Excerpt: Candidate peptides for T cell based therapies according to the present invention were further tested for their MHC binding capacity (affinity). The individual peptide-MHC complexes were produced by UV-ligand exchange, where a UV-sensitive peptide is cleaved upon UV-irradiation, and exchanged with the peptide of interest as analyzed. Only peptide candidates that can effectively bind and stabilize the peptide-receptive MHC molecules prevent dissociation of the MHC complexes. To determine the yield of the exchange reaction, an ELISA was performed based on the detection of the light chain (β2m) of stabilized MHC complexes. The assay was performed as generally described in Rodenko et al. (Rodenko et al., 2006).
96 well MAXISorp plates (NUNC) were coated over night with 2 ug/ml streptavidin in PBS at room temperature, washed 4× and blocked for 1 h at 37° C. in 2% BSA containing blocking buffer. […] Peptide-MHC monomers of the UV-exchange reaction were diluted 100 fold in blocking buffer. Samples were incubated for 1 h at 37° C., washed four times, incubated with 2 ug/ml HRP conjugated anti-βm for 1 h at 37° C., washed again and detected with TMB solution that is stopped with […]. Absorption was measured at 450 nm. Candidate peptides that show a high exchange yield (preferably higher than 50%, most preferred higher than 75%) are generally preferred for a generation and production of antibodies or fragments thereof, and/or T cell receptors or fragments thereof, as they show sufficient avidity to the MHC molecules and prevent dissociation of the MHC complexes.

Q: “1 (PLWGKVFYL; listed as Homo sapiens) [compound 1]” was tested. Which “Peptide exchange (MHC class I binding score, peptide exchange yield)” value (“Peptide exchange” for short) did it give?
A: Its value is “++ (20%-49% = ++)”.

Q: Which “Peptide exchange” value does the source give for “3 (TLLGKQVTL; listed as Homo sapiens) [compound 3]” here?
A: Its value is “+++ (50%-75% = +++)”.

Q: With “4 (ELAEIVFKV; listed as Homo sapiens) [compound 4]” as the substance, how does the “Peptide exchange” value read?
A: The value was “+++ (50%-75% = +++)”.

Q: For “5 (SLFGQEVYC; listed as Homo sapiens) [compound 5]”, which “Peptide exchange” value is on record?
A: Its value is “+++ (50%-75% = +++)”.

Q: With “6 (FLDPAQRDL; listed as Homo sapiens) [compound 6]” as the substance, how does the “Peptide exchange” value read?
A: Its value is “+++ (50%-75% = +++)”.

Q: For “10 (KTLDVFNIIL; listed as Homo sapiens) [compound 10]”, which “Peptide exchange” value is on record?
A: The value was “++ (20%-49% = ++)”.

Q: How did the “Peptide exchange” value turn out when “11 (GVLKVFLENV; listed as Homo sapiens) [compound 11]” was run?
A: The value was “++ (20%-49% = ++)”.

Q: How did the “Peptide exchange” value turn out when “12 (GLIYEETRGV; listed as Homo sapiens) [compound 12]” was run?
A: Its value is “++ (20%-49% = ++)”.

Q: With “13 (VLRDNIQGI; listed as Homo sapiens) [compound 13]” as the substance, how does the “Peptide exchange” value read?
A: The value was “+++ (50%-75% = +++)”.

Q: With “14 (LLDHLSFINKI; listed as Homo sapiens) [compound 14]” as the substance, how does the “Peptide exchange” value read?
A: The value was “++ (20%-49% = ++)”.

Q: “16 (HLYNNEEQV; listed as Homo sapiens) [compound 16]” was tested. Which “Peptide exchange” value did it give?
A: The value was “++ (20%-49% = ++)”.

Q: “18 (YVLNEEDLQKV; listed as Homo sapiens) [compound 18]” was tested. Which “Peptide exchange” value did it give?
A: Its value is “+++ (50%-75% = +++)”.

Q: How did the “Peptide exchange” value turn out when “19 (TLLPTVLTL; listed as Homo sapiens) [compound 19]” was run?
A: Its value is “+++ (50%-75% = +++)”.

Q: Which “Peptide exchange” value does the source give for “20 (ALDGHLYAI; listed as Homo sapiens) [compound 20]” here?
A: The value was “+++ (50%-75% = +++)”.

Q: Which “Peptide exchange” value does the source give for “21 (SLYHRVLLY; listed as Homo sapiens) [compound 21]” here?
A: The value was “++++ (>= 75% = ++++)”.

Q: For “22 (MLSDLTLQL; listed as Homo sapiens) [compound 22]”, which “Peptide exchange” value is on record?
A: The value was “++++ (>= 75% = ++++)”.

Q: With “23 (AQTVVVIKA; listed as Homo sapiens) [compound 23]” as the substance, how does the “Peptide exchange” value read?
A: Its value is “+ (<20% = +)”.

Q: “24 (FLWNGEDSAL; listed as Homo sapiens) [compound 24]” was tested. Which “Peptide exchange” value did it give?
A: The value was “+++ (50%-75% = +++)”.

Q: How did the “Peptide exchange” value turn out when “25 (IQADDFRTL; listed as Homo sapiens) [compound 25]” was run?
A: Its value is “++ (20%-49% = ++)”.

Q: How did the “Peptide exchange” value turn out when “26 (KVDGVVIQL; listed as Homo sapiens) [compound 26]” was run?
A: The value was “+++ (50%-75% = +++)”.

Q: “27 (KVFGDLDQV; listed as Homo sapiens) [compound 27]” was tested. Which “Peptide exchange” value did it give?
A: The value was “+++ (50%-75% = +++)”.

Q: Which “Peptide exchange” value does the source give for “28 (TLYSMDLMKV; listed as Homo sapiens) [compound 28]” here?
A: The value was “+++ (50%-75% = +++)”.

Q: With “29 (TLCNKTFTA; listed as Homo sapiens) [compound 29]” as the substance, how does the “Peptide exchange” value read?
A: The value was “+++ (50%-75% = +++)”.

Q: “31 (ALSDETKNNWEV; listed as Homo sapiens) [compound 31]” was tested. Which “Peptide exchange” value did it give?
A: The value was “++++ (>= 75% = ++++)”.

Q: Which “Peptide exchange” value does the source give for “32 (ILADEAFFSV; listed as Homo sapiens) [compound 32]” here?
A: The value was “+++ (50%-75% = +++)”.

Q: With “33 (LLLPLLPPLSPSLG; listed as Homo sapiens) [compound 33]” as the substance, how does the “Peptide exchange” value read?
A: Its value is “+++ (50%-75% = +++)”.

Q: With “35 (YVLPKLYVKL; listed as Homo sapiens) [compound 35]” as the substance, how does the “Peptide exchange” value read?
A: Its value is “++ (20%-49% = ++)”.

Q: For “36 (KLYGIEIEV; listed as Homo sapiens) [compound 36]”, which “Peptide exchange” value is on record?
A: The value was “++++ (>= 75% = ++++)”.

Q: With “37 (ALINDILGELVKL; listed as Homo sapiens) [compound 37]” as the substance, how does the “Peptide exchange” value read?
A: The value was “+++ (50%-75% = +++)”.

Q: Which “Peptide exchange” value does the source give for “38 (KMQEDLVTL; listed as Homo sapiens) [compound 38]” here?
A: The value was “+++ (50%-75% = +++)”.

Q: For “39 (ALMAVVSGL; listed as Homo sapiens) [compound 39]”, which “Peptide exchange” value is on record?
A: Its value is “+++ (50%-75% = +++)”.

Q: “40 (SLLALPQDLQA; listed as Homo sapiens) [compound 40]” was tested. Which “Peptide exchange” value did it give?
A: The value was “+++ (50%-75% = +++)”.

Q: Which “Peptide exchange” value does the source give for “41 (FVLPLVVTL; listed as Homo sapiens) [compound 41]” here?
A: Its value is “+++ (50%-75% = +++)”.

Q: Which “Peptide exchange” value does the source give for “42 (VLSPFILTL; listed as Homo sapiens) [compound 42]” here?
A: Its value is “+++ (50%-75% = +++)”.

Q: “44 (GLLWQIIKV; listed as Homo sapiens) [compound 44]” was tested. Which “Peptide exchange” value did it give?
A: The value was “++ (20%-49% = ++)”.

Q: “45 (VLGPTPELV; listed as Homo sapiens) [compound 45]” was tested. Which “Peptide exchange” value did it give?
A: Its value is “+++ (50%-75% = +++)”.

Q: With “46 (SLAKHGIVAL; listed as Homo sapiens) [compound 46]” as the substance, how does the “Peptide exchange” value read?
A: The value was “+++ (50%-75% = +++)”.

Q: Which “Peptide exchange” value does the source give for “47 (GLYQAQVNL; listed as Homo sapiens) [compound 47]” here?
A: The value was “+++ (50%-75% = +++)”.

Q: “48 (TLDHKPVTV; listed as Homo sapiens) [compound 48]” was tested. Which “Peptide exchange” value did it give?
A: Its value is “++ (20%-49% = ++)”.

Q: Which “Peptide exchange” value does the source give for “49 (LLDESKLTL; listed as Homo sapiens) [compound 49]” here?
A: Its value is “+++ (50%-75% = +++)”.

Q: With “50 (EYALLYHTL; listed as Homo sapiens) [compound 50]” as the substance, how does the “Peptide exchange” value read?
A: The value was “++ (20%-49% = ++)”.

Q: For “51 (LLLDGDFTL; listed as Homo sapiens) [compound 51]”, which “Peptide exchange” value is on record?
A: Its value is “+++ (50%-75% = +++)”.

Q: For “52 (ELLSSIFFL; listed as Homo sapiens) [compound 52]”, which “Peptide exchange” value is on record?
A: Its value is “+++ (50%-75% = +++)”.

Q: For “53 (SLLSHVIVA; listed as Homo sapiens) [compound 53]”, which “Peptide exchange” value is on record?
A: The value was “+++ (50%-75% = +++)”.

Q: Which “Peptide exchange” value does the source give for “54 (FINPKGNWLL; listed as Homo sapiens) [compound 54]” here?
A: Its value is “+++ (50%-75% = +++)”.

Q: With “55 (IASAIVNEL; listed as Homo sapiens) [compound 55]” as the substance, how does the “Peptide exchange” value read?
A: The value was “++ (20%-49% = ++)”.

Q: How did the “Peptide exchange” value turn out when “56 (KILDLTRVL; listed as Homo sapiens) [compound 56]” was run?
A: The value was “++ (20%-49% = ++)”.

Q: “57 (VLISSTVRL; listed as Homo sapiens) [compound 57]” was tested. Which “Peptide exchange” value did it give?
A: The value was “++ (20%-49% = ++)”.

Q: With “58 (ALDDSLTSL; listed as Homo sapiens) [compound 58]” as the substance, how does the “Peptide exchange” value read?
A: The value was “++ (20%-49% = ++)”.

Q: Which “Peptide exchange” value does the source give for “59 (ALTKILAEL; listed as Homo sapiens) [compound 59]” here?
A: The value was “+++ (50%-75% = +++)”.

Q: How did the “Peptide exchange” value turn out when “60 (FLIDTSASM; listed as Homo sapiens) [compound 60]” was run?
A: The value was “++ (20%-49% = ++)”.

Q: For “61 (HLPDFVKQL; listed as Homo sapiens) [compound 61]”, which “Peptide exchange” value is on record?
A: Its value is “++ (20%-49% = ++)”.

Q: “62 (SLFNQEVQI; listed as Homo sapiens) [compound 62]” was tested. Which “Peptide exchange” value did it give?
A: The value was “+++ (50%-75% = +++)”.

Q: With “63 (TLSSERDFAL; listed as Homo sapiens) [compound 63]” as the substance, how does the “Peptide exchange” value read?
A: Its value is “+ (<20% = +)”.

Q: Which “Peptide exchange” value does the source give for “64 (GLSSSSYEL; listed as Homo sapiens) [compound 64]” here?
A: The value was “++ (20%-49% = ++)”.

Q: “65 (KLDGICWQV; listed as Homo sapiens) [compound 65]” was tested. Which “Peptide exchange” value did it give?
A: The value was “+++ (50%-75% = +++)”.

Q: How did the “Peptide exchange” value turn out when “66 (FITDFYTTV; listed as Homo sapiens) [compound 66]” was run?
A: The value was “+++ (50%-75% = +++)”.

Q: “67 (GVIETVTSL; listed as Homo sapiens) [compound 67]” was tested. Which “Peptide exchange” value did it give?
A: The value was “++ (20%-49% = ++)”.

Q: How did the “Peptide exchange” value turn out when “69 (GIYDGILHSI; listed as Homo sapiens) [compound 69]” was run?
A: Its value is “+++ (50%-75% = +++)”.

Q: Which “Peptide exchange” value does the source give for “70 (GLFSQHFNL; listed as Homo sapiens) [compound 70]” here?
A: Its value is “+++ (50%-75% = +++)”.

Q: Which “Peptide exchange” value does the source give for “71 (GLITVDIAL; listed as Homo sapiens) [compound 71]” here?
A: Its value is “+++ (50%-75% = +++)”.

Q: How did the “Peptide exchange” value turn out when “72 (GMIGFQVLL; listed as Homo sapiens) [compound 72]” was run?
A: The value was “+++ (50%-75% = +++)”.

Q: Which “Peptide exchange” value does the source give for “74 (ILDETLENV; listed as Homo sapiens) [compound 74]” here?
A: The value was “++ (20%-49% = ++)”.
